B1: VN04-3 (antibody, V domains shown)
VH: QVQLQESGPDLVKPGASVMISCKASGYSFTYYYMHWVKQSHGKTLEWIGRIYPYNGDTNYNRRFKDKAILTVDESSSTAYMELRSLTSEDSAVYFCARDANYEGDWYFDVWGQGTTVTVSS
VL: DIQMTQSPSSFSVSLGDRVTITCKASEDIYNRVAWYQQKPGNAPRLLMSDATSLGAGVPSRFSGSGSGKDHTLSITSLQTEDVATYYCQQYWNTRTFGGGTKLEIKR
B2: VN04-3-huG1 (antibody, V domains shown)
VH: B1 VH
VL: B1 VL

Legend:
[1] = biological target: T1, hemagglutinin of A/Vietnam/1203/04 (H5N1) on virus (influenza A virus H5N1, …, UniProt Q80A26 6-557); test: inferred from HI and virus neutralization assays
[2] = biological target: T1, hemagglutinin of A/Vietnam/1203/04 …; test: HI assay

Row | Binder | binding result [1] | binding result [2]
1 | B1 | binds | –
2 | B2 | – | binds
